As usually defined, the stoichiometry N is a count of units in the complex or per binding partner.

The target of experiment [1] is VpsO-503^(E519A, R522A, R525A) kinase domain. Briefly: SEC-MALS; 25 uL of each VpsO protein at 1.5 mg/mL injected on a silica-based SEC analytical HPLC column; 25 mM Tris pH 8.0, 50 mM NaCl, 1 mM DTT; room temperature. Background: SEC sorts molecules by how far they enter the pores of the column.
In experiment [2] the target is VpsU, low-molecular-weight phosphotyrosine protein phosphatase. In words: SEC.

In turn, “VpsO-503^(E519A, R522A, R525A) kinase domain (domain or fragment)” displayed a stoichiometry N in experiment [1] of 2.
In experiment [2], “VpsU, low-molecular-weight phosphotyrosine protein phosphatase (enzyme)” returned a stoichiometry N of 2.

Values taken from article PMC7485978, “A tyrosine phosphoregulatory system controls exopolysaccharide biosynthesis and biofilm formation in Vibrio cholerae” (PLoS Pathogens, 2020).
